Assay results taken from patent US6380373B1, “Steroid receptor coactivator compositions and methods of use” (Baylor College of Medicine, priority 1995, dated 2002).

Experiments:
[1] = biological target: T1, hPR (Homo sapiens, UniProt P06401); experiment: Transient transfection CAT reporter assay, hPRB with PRE2-TATA-CAT in HeLa cells; type: cell-based; conditions: HeLa cells, PRE2-TATA-CAT, 2×10^−8 M R5020, without SRC-1
T1 construct: expressed in transfected cells; host or cells: HeLa
T1 sequence (P06401 1-933): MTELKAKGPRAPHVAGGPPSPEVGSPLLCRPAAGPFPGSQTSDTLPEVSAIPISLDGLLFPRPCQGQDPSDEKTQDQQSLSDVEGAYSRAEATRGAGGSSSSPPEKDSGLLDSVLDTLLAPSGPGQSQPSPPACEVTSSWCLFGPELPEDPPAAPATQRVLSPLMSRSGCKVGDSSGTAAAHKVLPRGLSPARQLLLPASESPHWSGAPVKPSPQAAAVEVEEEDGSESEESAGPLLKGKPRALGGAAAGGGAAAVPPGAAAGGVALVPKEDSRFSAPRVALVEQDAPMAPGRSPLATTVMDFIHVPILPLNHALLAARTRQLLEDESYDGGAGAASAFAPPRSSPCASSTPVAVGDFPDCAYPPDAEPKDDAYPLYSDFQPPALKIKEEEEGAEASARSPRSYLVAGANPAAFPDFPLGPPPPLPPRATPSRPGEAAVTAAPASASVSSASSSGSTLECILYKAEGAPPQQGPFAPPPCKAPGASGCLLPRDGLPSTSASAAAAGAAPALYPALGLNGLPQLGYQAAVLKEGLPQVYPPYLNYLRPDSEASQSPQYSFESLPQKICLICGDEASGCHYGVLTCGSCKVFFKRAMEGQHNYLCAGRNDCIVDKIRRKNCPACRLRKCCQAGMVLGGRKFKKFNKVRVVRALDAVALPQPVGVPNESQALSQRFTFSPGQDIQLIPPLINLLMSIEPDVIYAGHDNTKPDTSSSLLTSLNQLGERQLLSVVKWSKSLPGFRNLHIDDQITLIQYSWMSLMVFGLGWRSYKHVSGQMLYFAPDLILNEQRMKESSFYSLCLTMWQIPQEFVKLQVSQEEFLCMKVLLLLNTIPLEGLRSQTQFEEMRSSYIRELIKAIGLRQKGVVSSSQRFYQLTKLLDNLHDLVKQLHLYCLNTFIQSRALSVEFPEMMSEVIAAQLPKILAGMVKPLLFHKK
Protocol: (§1) Lipofectin (GibcoBRL) was selected for transfection of Hela cells.
To further investigate the role of SRC-1 in receptor transactivation of target gene expression, transient transfection assays were carried out in mammalian cell lines. HeLa cells were cotransfected with mammalian expression vectors for full-length SRC-1 and hPRB together with a plasmid containing two copies of the progesterone-responsive DNA element (PRE) inserted in front of the TATA box of the E1b adenovirus, linked to the chloramphenicol acetyl transferase (CAT) reporter gene, PRE2-TATA-CAT.
Cells were harvested 42 h after transfection and the chloramphenicol acetyl transferase (CAT) activity determined using 8 μg of protein extract.

[2] = biological target: T2, TR (Homo sapiens, UniProt P10828); experiment: Dominant-negative CAT assay TR/DR4-tk-CAT with SRC-1(0.8) in Lmtk- cells; type: cell-based; design: expressed in transfected cells; host or cells: Lmtk- (mouse fibroblast) cells; conditions: 10 μg SRC-1(0.8), hormone 2×10^−8 M
T2 sequence (P10828 1-461): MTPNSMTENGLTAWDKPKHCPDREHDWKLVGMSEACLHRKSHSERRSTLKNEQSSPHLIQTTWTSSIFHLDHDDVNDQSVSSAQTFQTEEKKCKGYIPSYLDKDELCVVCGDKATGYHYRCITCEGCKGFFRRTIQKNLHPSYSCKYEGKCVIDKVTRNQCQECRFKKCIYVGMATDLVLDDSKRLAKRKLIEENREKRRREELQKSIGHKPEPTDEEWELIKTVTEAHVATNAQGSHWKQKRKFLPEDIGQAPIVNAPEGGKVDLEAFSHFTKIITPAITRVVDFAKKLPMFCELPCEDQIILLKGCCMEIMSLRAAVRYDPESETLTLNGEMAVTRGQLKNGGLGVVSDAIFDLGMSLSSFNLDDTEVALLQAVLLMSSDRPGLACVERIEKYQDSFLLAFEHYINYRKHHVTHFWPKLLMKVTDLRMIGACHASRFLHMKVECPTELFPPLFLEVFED
Protocol: as §1
(§2) To further elucidate the mechanism of SRC-1 action, the effect of the N-terminal deletion mutant of SRC-1, SRC-1(0.8), on receptor transactivation was examined. The amino acid sequence from 865-1061, which contains the region that binds to the receptor, was cloned in frame to a mammalian expression vector that provided an exogenous AUG codon.
(§3) Lmtk^− cells were transfected with 5 μg of steroid receptors cDNAs expression vectors and their reporters, PR/PRE2-tk-CAT and TR§/DR4-tk-CAT, along with 10 μg of SRC-1(0.8) or empty expression vector and then treated with hormones (2×10^−8 M). The reporter CAT activity was determined using 60 μg of protein extract.

[3] = biological target: T1, hPR; experiment: Dominant-negative CAT assay PR/PRE2-tk-CAT with SRC-1(0.8); type: cell-based; conditions: Lmtk- cells
Protocol: as §1, §2, §3

[4] = biological target: T3, GST-TR (Homo sapiens, UniProt P10828); experiment: In vitro interaction with baculovirus expressed GST-TR; type: binding
T3 construct: GST; made in house
T3 sequence (P10828 1-461): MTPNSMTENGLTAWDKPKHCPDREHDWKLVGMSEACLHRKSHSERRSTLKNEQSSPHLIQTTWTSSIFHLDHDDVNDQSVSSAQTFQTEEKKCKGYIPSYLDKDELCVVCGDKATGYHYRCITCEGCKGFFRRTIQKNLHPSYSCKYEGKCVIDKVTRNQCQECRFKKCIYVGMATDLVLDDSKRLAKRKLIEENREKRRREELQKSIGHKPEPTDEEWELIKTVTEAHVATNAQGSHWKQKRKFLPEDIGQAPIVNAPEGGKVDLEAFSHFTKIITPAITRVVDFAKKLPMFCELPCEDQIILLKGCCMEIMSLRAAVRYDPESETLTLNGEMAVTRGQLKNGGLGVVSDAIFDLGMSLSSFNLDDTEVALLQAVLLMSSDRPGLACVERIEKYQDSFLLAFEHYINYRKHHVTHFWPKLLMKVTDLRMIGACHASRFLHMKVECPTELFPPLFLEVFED
Source text: (§4) Thus, we investigated the effect of SRC-1 expression on the transcriptional activity of other intracellular receptors.

[5] = biological target: T4, GST-ER (Homo sapiens, UniProt P03372); experiment: In vitro interaction with baculovirus expressed GST-ER; type: binding
T4 construct: GST; made in house
T4 sequence (P03372 1-595): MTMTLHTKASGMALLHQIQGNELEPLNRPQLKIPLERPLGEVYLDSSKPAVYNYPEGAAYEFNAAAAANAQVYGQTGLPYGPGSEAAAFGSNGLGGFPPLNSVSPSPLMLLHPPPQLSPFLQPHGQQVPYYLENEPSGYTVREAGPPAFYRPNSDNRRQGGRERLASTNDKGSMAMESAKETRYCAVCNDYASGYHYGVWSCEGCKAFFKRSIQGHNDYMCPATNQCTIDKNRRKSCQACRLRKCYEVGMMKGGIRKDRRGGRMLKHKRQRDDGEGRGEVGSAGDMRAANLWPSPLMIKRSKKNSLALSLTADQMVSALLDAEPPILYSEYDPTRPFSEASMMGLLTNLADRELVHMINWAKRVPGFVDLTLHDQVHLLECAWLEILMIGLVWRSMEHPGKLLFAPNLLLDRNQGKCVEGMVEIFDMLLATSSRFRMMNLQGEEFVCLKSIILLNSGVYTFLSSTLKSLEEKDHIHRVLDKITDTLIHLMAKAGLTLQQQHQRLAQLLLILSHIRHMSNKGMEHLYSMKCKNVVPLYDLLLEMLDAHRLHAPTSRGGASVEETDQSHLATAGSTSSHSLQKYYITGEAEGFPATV
Source text: as §4

CCC(=O)[C@@]1(C)CC[C@H]2[C@@H]3CCC4=CC(=O)CCC4=C3CC[C@@]21C [R5020, reference compound]
induction of hPR activity (CAT reporter) [1]: ~5 fold

B1: SRC-1(0.8): N-terminal truncated form of SRC-1, amino acids 865-1061, containing the receptor-binding region; dominant-negative repressor (protein, UniProt Q15788 865-1061, looked up, fragment)
chain: LNRLPELELEAIDNQFGQPGTGDQIPWTNNTVTAINQSKSEDQCISSQLDELLCPPTTVEGRNDEKALLEQLVSFLSGKDETELAELDRALGIDKLVQGGGLDVLSERFPPQQATPPLIMEERPNLYSQPYSSPSPTANLPSPFQGMVRQKPSLGTMPVQVTPPRGAFSPGMGMQPRQTLNRPPAAPNQLRLQLQQR
effect on ligand-induced transcriptional activity of TR [2]: inhibits
effect on hormone induced transcriptional activity of hPR ([3]; 10 μg SRC-1(0.8), hormone 2×10^−8 M): efficiently reduced
effect on the hormone-free receptor ([3]; no hormone): No major effect
interaction with GST-TR in vitro [4]: able to interact
interaction with GST-ER in vitro [5]: able to interact
